From the supplement of paper PMC11246515
± gives the standard deviation of the averaged measurements.

Experiment: total protein half-life in vivo (active degradation + dilution); higher = more stable protein
[1] = E. coli NCM3722 delta-clpP delta-lon delta-hslV, growth: N-lim chemostat, doubling time 6 h
[2] = E. coli NCM3722 delta-clpP, growth: N-lim chemostat, doubling time 6 h
[3] = E. coli NCM3722 delta-hslV, growth: N-lim chemostat, doubling time 6 h
[4] = E. coli NCM3722 delta-lon, growth: N-lim chemostat, doubling time 6 h
[5] = E. coli NCM3722 delta-smpB, growth: N-lim chemostat, doubling time 6 h
[6] = wild type E. coli NCM3722, growth: C-lim chemostat, doubling time 3 h
[7] = wild type E. coli NCM3722, growth: C-lim chemostat, doubling time 6 h
[8] = wild type E. coli NCM3722, growth: C-lim chemostat, doubling time 12 h
[9] = wild type E. coli NCM3722, growth: N-lim chemostat, doubling time 6 h
[10] = wild type E. coli NCM3722, growth: N-lim chemostat, doubling time 12 h
[11] = wild type E. coli NCM3722, growth: P-lim chemostat, doubling time 6 h
[12] = wild type E. coli NCM3722, growth: P-lim chemostat, doubling time 12 h

Sequence	total protein half-life in vivo [1] [h]	total protein half-life in vivo [2] [h]	total protein half-life in vivo [3] [h]	total protein half-life in vivo [4] [h]	total protein half-life in vivo [5] [h]	total protein half-life in vivo [6] [h]	total protein half-life in vivo [7] [h]	total protein half-life in vivo [8] [h]	total protein half-life in vivo [9] [h]	total protein half-life in vivo [10] [h]	total protein half-life in vivo [11] [h]	total protein half-life in vivo [12] [h]
MIPEKRIIRRIQSGGCAIHCQDCSISQLCIPFTLNEHELDQLDNIIERKKPIQKGQTLFKAGDELKSLYAIRSGTIKSYTITEQGDEQITGFHLAGDLVGFDAIGSGHHPSFAQALETSMVCEIPFETLDDLSGKMPNLRQQMMRLMSGEIKGDQDMILLLSKKNAEERLAAFIYNLSRRFAQRGFSPREFRLTMTRGDIGNYLGLTVETISRLLGRFQKSGMLAVKGKYITIENNDALAQLAGHTRNVA [P0A9E5]	4.34 ± 0.13	2.99 ± 0.00054	1.2 ± 0.057	1.4 ± 0.028	1.24 ± 0.03	1.23 ± 0.064	1.708 ± 0.0036	2.2 ± 0.069	1.35 ± 0.091	1.68 ± 0.09	1.65 ± 0.039	2.37 ± 0.86
MLIIKRSVAIIAILFSPLSTASNLTSQLHNFFSAQLAGVSDEVRVSIRTAPNLLPPCEQPLLSMSNNSRLWGNVNVLARCGNDKRYLQVNVQATGNYVVAAMPIARGGKLEAGNVKLKRGRLDTLPPRTVLDINQLVDAISLRDLSPDQPIQLTQFRQAWRVKAGQRVNVIASGDGFSANAEGQALNNAAVAQNARVRMVSGQVVSGVVDADGNILINL	–	–	–	–	–	0.905 ± 0.37	–	2.23	–	–	–	–
MSNLTYLQGYPEQLLSQVRTLINEQRLGDVLAKRYPGTHDYATDKALWQYTQDLKNQFLRNAPPINKVMYDNKIHVLKNALGLHTAVSRVQGGKLKAKVEIRVATVFRNAPEPFLRMIVVHELAHLKEKEHNKAFYQLCCHMEPQYHQLEFDTRLWLTQLSLGQNKI	5.45 ± 0.29	1.98 ± 0.15	1.16	–	1.71	3.09	1.64 ± 0.58	5.13	1.78	1.54 ± 0.21	1.84 ± 0.49	2.74 ± 0.62
MTTILKHLPVGQRIGIAFSGGLDTSAALLWMRQKGAVPYAYTANLGQPDEEDYDAIPRRAMEYGAENARLIDCRKQLVAEGIAAIQCGAFHNTTGGLTYFNTTPLGRAVTGTMLVAAMKEDGVNIWGDGSTYKGNDIERFYRYGLLTNAELQIYKPWLDTDFIDELGGRHEMSEFMIACGFDYKMSVEKAYSTDSNMLGATHEAKDLEYLNSSVKIVNPIMGVKFWDESVKIPAEEVTVRFEQGHPVALNGKTFSDDVEMMLEANRIGGRHGLGMSDQIENRIIEAKSRGIYEAPGMALLHIAYERLLTGIHNEDTIEQYHAHGRQLGRLLYQGRWFDSQALMLRDSLQRWVASQITGEVTLELRRGNDYSILNTVSENLTYKPERLTMEKGDSVFSPDDRIGQLTMRNLDITDTREKLFGYAKTGLLSSSAASGVPQVENLENKGQ [P0A6E4]	4.11 ± 0.6	3.3 ± 0.15	3.2 ± 0.23	3.89 ± 0.34	3.26 ± 0.15	3.17 ± 0.06	5.27 ± 0.081	9.91 ± 0.69	3.39 ± 0.12	4.82 ± 0.071	5.69 ± 0.15	10.7 ± 0.7
MTESTSRRPAYARLLDRAVRILAVRDHSEQELRRKLAAPIMGKNGPEEIDATAEDYERVIAWCHEHGYLDDSRFVARFIASRSRKGYGPARIRQELNQKGISREATEKAMRECDIDWCALARDQATRKYGEPLPTVFSEKVKIQRFLLYRGYLMEDIQEIWRNFAD	5.54 ± 0.24	3.94	–	–	–	–	4.03	–	–	5.32	7.34	8.52
MTLETAFMLPVQDAQHSFRRLLKAMSEPGVIVALHQLKRGWQPLNIATTSVLLTLADNDTPVWLSTPLNNDIVNQSLRFHTNAPLVSQPEQATFAVTDEAISSEQLNALSTGTAVAPEAGATLILQVASLSGGRMLRLTGAGIAEERMIAPQLPECILHELTERPHPFPLGIDLILTCGERLLAIPRTTHVEVC	–	–	–	–	–	–	–	–	–	–	1.74 ± 0.51	3.12 ± 1.3
MQFNIPTLLTLFRVILIPFFVLVFYLPVTWSPFAAALIFCVAAVTDWFDGFLARRWNQSTRFGAFLDPVADKVLVAIAMVLVTEHYHSWWVTLPAATMIAREIIISALREWMAELGKRSSVAVSWIGKVKTTAQMVALAWLLWRPNIWVEYAGIALFFVAAVLTLWSMLQYLSAARADLLDQ [P0ABF8]	7.82	6.476 ± 0.013	–	5.76	5.9	3.1 ± 0.097	5.64 ± 0.51	15.4	–	9.62 ± 4.9	6.75 ± 1.5	12.1 ± 1.3
MTTLTARPEAITFDPQQSALIVVDMQNAYATPGGYLDLAGFDVSTTRPVIANIQTAVTAARAAGMLIIWFQNGWDEQYVEAGGPGSPNFHKSNALKTMRKQPQLQGKLLAKGSWDYQLVDELVPQPGDIVLPKPRYSGFFNTPLDSILRSRGIRHLVFTGIATNVCVESTLRDGFFLEYFGVVLEDATHQAGPKFAQKAALFNIETFFGWVSDVETFCDALSPTSFAHIA	4.33 ± 0.13	1.41 ± 0.23	0.334	0.503 ± 0.025	0.441	–	–	–	–	0.812	–	–
